16 molecules from patent US20230034474A1 (AC IMMUNE, published 2023) can be followed below.

Substitutions are numbered along the chain they refer to.

Sequences and labels used below:
B1: ACI-8041-1F11B5-Ab1 (antibody, mouse IgG2a, kappa, V domains shown)
VH: QVQLKESGPGLVAPSQSLSITCTVSGFSLTNYGVSWIRQPPGKGLEWLGVIWGDGSTNYHSALISRLSISKDNSKSQVFLKLNSLQTDDTATYYCTKGAGSWGQGIPVTVSA
VL: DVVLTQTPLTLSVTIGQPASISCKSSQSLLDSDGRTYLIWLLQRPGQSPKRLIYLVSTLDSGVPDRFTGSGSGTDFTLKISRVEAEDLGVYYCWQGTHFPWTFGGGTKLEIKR
notes: Murine IgG2a/kappa; also called ACI-8041-1F111B5-Ab1; ACI-8041- F1B5-Ab1
B2: ACI-31-25B1-Ab2 (murine IgG2a with a lambda light chain) (antibody, V domains shown)
VH: EVQLVESGGDLVKPGGSLKLSCAASRFTFSTYGMSWVRQTPDKRLEWVATISSGRSYTYYADSVKGRFTISRDNAKNTLYLQMSSLKSEDTAMYYCARNSNNQRDYYAMDYWGQGTSVTVSS
VL: QLVLTQSSSASFSLGASAKLTCTLSSQHITYTIEWYQQQPLKPPKYVMVLEKDGSHSTGDGIPDRFSGSSSGADRYLSISNIQPEDEAVYICGVGDAIKEQFVYVFGGGTKVTVLG
notes: also called AC-31-25B1-Ab2
B3: ACI-8041-9D7E1-Ab1 (antibody, mouse IgG2a, kappa, V domains shown)
VH: EVMLVESGGGLVKPGGSLKLSCAASGFTFSSYAMSWVRQTPEKRLEWVATISSGGNYTYCPDSVKGRFTISRDNAKNTLYLQMSSLRSEDTAMYYCAAYAYDDGYYFDYWGQGTTLTVSS
VL: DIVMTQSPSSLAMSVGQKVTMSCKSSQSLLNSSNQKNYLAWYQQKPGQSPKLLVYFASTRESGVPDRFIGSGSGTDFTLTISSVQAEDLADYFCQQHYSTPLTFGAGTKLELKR
notes: Murine IgG2a/kappa
B4: ACI-8041-10H3B11-Ab1 (antibody, mouse IgG2a, kappa, V domains shown)
VH: B3 VH
VL: DIQMTQSPSSLSASLGGKVTITCKASQDINKYIAWYQHKPGKGPRLLIHYTSTLQPGIPSRFSGSGSGRDYSFSISNLGPEDIATYYCLQYDNLLTFGGGTKLEIKR
notes: Murine IgG2a/kappa; Same VH as ACI-8041-9D7E1-Ab1; also called ACI-8041-11B3B11-Ab1; AC-8041-13B11-Ab
B5: ACI-8041-5A6H9-Ab1 (antibody, mouse IgG2a, kappa, V domains shown)
VH: DVQLQESGPGLVKPSQSLSLTCTVTGYSITSDYAWNWIRQFPGNKLEWMGYIDYSGITSYNPSLKSRISITRDTSKNQFFLQLNSVTTEDSATYYCARISGLDYDVRAGWFASWGQGTLVTVSA
VL: DIVMTQAAFSNPVTLGTSVSISCRSSKSLLHSNGITYLYWYLQKPGQSPQLLIYQMSNLASGVPDRFSSSGSGTDFTLRISRVEAEDVGVYYCAQNLERPLTFGAGTKLELKR
notes: Murine IgG2a/kappa; also called ACI-8041-5A61H9-Ab1; AC-8041-5A619-Ab1
B6: ACI-8039-307F7-Ab2 (antibody, mouse IgG2a, kappa, V domains shown)
VH: QVQLQQPGAELVRPGGSVKLSCKASGYSFTNYWMNWVKQRPGQGLEWIGMIHPSDSETRLNQKFKDKATLTVDKSSSTAYLQLSSPTSEDSAVYYCAKLLLYYFDYWGQGTTLTVSS
VL: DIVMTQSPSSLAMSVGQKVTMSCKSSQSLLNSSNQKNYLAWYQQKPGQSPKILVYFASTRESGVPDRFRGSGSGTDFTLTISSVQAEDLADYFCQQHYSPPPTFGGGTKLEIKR
notes: Murine IgG2a/kappa; also called AC-8039-307F7-Ab2
B7: ACI-8041-2B9H5-Ab1 (antibody, mouse IgG2a, kappa, V domains shown)
VH: QVQLQQSDAELVKPGASVKISCKVSGYTFTDHPIHWMKQRPDQGLEWIGYFYPRDSSTHYNEKFKGKATLTADKSSSTAYMQLNSLTSEDSAVYFCARSMGYWGQGTSVTVSS
VL: DIKMTQSPSSMYASLGERVTITCKASQDINSYLSWFQQKPGKSPKTLIYRANRLVDGVPSRFSGSGSGQDYSLTISSLDYEDMGIYYCLQYDEFPPTFGAGTKLELKR
notes: Murine IgG2a/kappa; also called AC-8041-2B95-Ab1
B8: ACI-8041-5A2D4-Ab1 (antibody, mouse IgG2a, kappa, V domains shown)
VH: EVQLQQSGPELVKPGASVKISCKTSGYTFTENTMHWVKQIHGKSLEWIGGINPNNGVTNNNQKFEGKATLTVDKSSSTAYMELRSLTSEDSAVYYCARSDYDALYYSMDCWGQGTSVTVSS
VL: EIVLTQSPTTMAASPGEKITITCSGSSSIISNYLHWYQQKPGFSPKLLIYRTSNLASGVPTRFSGSGSGTSYSLTIGTMEAEDVATYYCQQGSSIPFTFGSGTKLEIKR
notes: Murine IgG2a/kappa
B9: ACI-8041-6C3C4-Ab1 (antibody, mouse IgG2a, kappa, V domains shown)
VH: EVQLQQSGPELVKPGASVNISCKTSGYTFTEYTMHWMKQSHGKSLEWIGGINPNNGVTGYNQKFKGRATLTVDKSSSTAYMELRSLTSEDSAVYYCARSDYDDLYYAMDYWGQGTSVTVSS
VL: B8 VL with G25A, I30S, T61A
notes: Murine IgG2a/kappa; also called ACD-8041-63C4-Ab1
B10: ACI-8041-3G11B3-Ab1 (antibody, mouse IgG2a, kappa, V domains shown)
VH: QVQLQQSGAELVKPGASVKLSCKASGYTFINYYIYWVKQRPGQGLEWIGEIIPSNDGTNFNEKFKTKATLTVDKSSSTAYMQLSSLTSEDSAVYYCTATGTVWGQGTLVTVSA
VL: DVLMTQTPLSLPVSLGDQASISCRSSQSIVHSNGITYLEWYLQKPGQSPKLLIYKVSNRFSGVPDRFSGSGSGTDFTLKISRVEAEDLGVYYCFQGSHVPWTFGGGTKLEIKR
notes: Murine IgG2a/kappa; also called ACD-8041-3G11B3-Ab1
B11: ACI-8039-306H5-Ab1 (antibody, mouse IgG2a, kappa, V domains shown)
VH: QVTLKESGPGILKPSQTLSLTCSFSGFSLSTSGMGVGWIRQPSGKGLEWLAHIWWDDDKYYNPSLKSQLTISKDTSRNQIFLKITSVDTADTATYYCVRSLYFDYWGQGTTLTVSS
VL: DVVMTQTPLSLPVSLGDQASISCRSSQSLVHSNGNTYLHWYLQKPGQSPKLLIYKVSNRFSGVPDRFSGSGSGTDFTLKISRVEAEDLGVYFCSQSTHVPLTFGAGTKLELKR
notes: Murine IgG2a/kappa; also called AC-8039-306H5-Ab1
B12: ACI-8041-4G6D2-Ab1 (antibody, mouse IgG2a, kappa, V domains shown)
VH: B10 VH with K13R, I30T, N31S, I34M, D56G, G57D, K65R, T66S
VL: B10 VL with I35N
notes: Murine IgG2a/kappa
B13: ACI-8039-309D9-Ab2 (antibody, mouse IgG2a, kappa, V domains shown)
VH: QVQLQQSGPQLVRPGASVKISCKASGNSFTSYWMHWVKQRPGQGLEWIGMIDPSDSETRLNQKFKDKATLTVDKSSSTAYMQLSSPTSEDSAVYYCAGLYFTLDYWGQGTSVTVSS
VL: DILMTQSPSSLTVSAGEKVTMSCKSSQSLLASGNQNNYLAWHQQKPGRSPKILIIWASTRVSGVPDRFIGSGSGTDFTLTINSVQAEDLAVYYCQQSYSAPLTFGAGTKLELKR
notes: Murine IgG2a/kappa; also called AC-8039-309D9-Ab2
B14: ACI-24-41F12-Ab3 (IgG2a isotype) (antibody, V domains shown)
VH: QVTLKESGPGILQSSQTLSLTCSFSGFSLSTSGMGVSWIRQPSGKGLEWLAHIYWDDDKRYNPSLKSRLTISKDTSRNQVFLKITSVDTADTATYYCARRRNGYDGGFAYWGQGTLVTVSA
VL: B10 VL with I35N, W101L, G105A, I111L
notes: Recombinant murine IgG2a/kappa with the same VH/VL as ACI-24-41F12-Ab2; Biotinylated when used as detection antibody in the sandwich ELISA; also called ACI-24-41F12-Ab3-rec1
B15: ACI-8037-103H5-Ab2 (antibody, mouse IgG2a, kappa, V domains shown)
VH: QVTLKESGPGILKPSQTLSLTCSFSGFSLSTSGMGVGWIRQPSGKGLEWLAHIWWDDDKYYNPSLKSRLTISKDSSRNQVFLKITSVDTADTATYYCVRRGTRLEDYFDFWGQGTTLTVSS
VL: B10 VL with Q27R, I35N, Y54F, L88Q, W101L, G105A, I111L
notes: Murine IgG2a/kappa
B16: ACI-8037-109F4-Ab1 (antibody, mouse IgG2a, kappa, V domains shown)
VH: QVTLKESGPGILQPSQTLSLTCSFSGFSLSTSGMGVSWIRQPSGKGLEWLAHIYWDDDKRYNPSLKSRLTISKDTSRNQVFLKITSVDTADAGTYYCARRPIRTVVDAMDYWGQGTSVTVSL
VL: B10 VL with S28T, I35N, K50N, W101L, G105A, I111L
notes: Murine IgG2a/kappa

The first test concerns the target T1, Human Abeta1-42 biotinylated at the peptide C-terminus (human, biotin at the peptide C-terminus).
T1 construct: also called biotinylated Abeta1-42
Kind of test: target capture ELISA: antibody held by anti-mouse Fc, biotinylated Abeta1-42 titrated in solution. A general note: ELISA stands for enzyme-linked immunosorbent assay.
Method: (§1) Briefly, a Nunc MaxiSorp 96-well plate (Nunc) was coated for 18 h at 4° C. with 50 μL of 5 pg/mL goat anti-mouse IgG, Fc-gamma fragment specific antibody (Jackson Immune Research) diluted in carbonate-bicarbonate buffer. The plate was then washed 4-times with 300 μL of PBS containing 0.05% Tween20 (Millipore). To block non-specific binding to the plate, freshly prepared solution of PBS containing 0.05% Tween20 and 1% BSA, was added to each well (100 μL/well) and the plate was incubated for 1 h at 37° C. […] Subsequently, the plate was washed 4-times with 300 μL of PBS containing 0.05% Tween20. […] After washing 4-times with 300 μL of PBS containing 0.05% Tween20, the plate was incubated for 45 min at ambient temperature with 50 μL/well of streptavidin-HRP (R&D systems) diluted 1:200 in PBS containing 1% BSA and 0.05% Tween20. The plate was again washed 4-times with 300 μL of PBS containing 0.05% Tween20 before incubating at ambient temperature for 20 or 30 min with 50 or 100 μL/well of 3,3′,5,5′-tetramethylbenzidine (TMB) enzyme substrate (BD Bioscience). Reaction was stopped with a 1.2 M HCl (Sigma) solution. Finally, optical densities (O.D.) were read at 450 nm absorption wavelength using a Tecan Infinite plate reader.
The molecule B1 came in with a Kd of 0.343 nM.
B2: binding was put at a Kd of 0.312 nM.
Molecule B3 came in with a Kd of 1.1 nM.
For B4, the Kd is 2.6 nM.

The next test concerns the target T1, Human Abeta1-42 biotinylated at the …. Kind of test: capture ELISA: antibody held on anti-mouse IgG Fc-coated plate, C-terminally biotinylated Abeta1-42 titrated in solution, streptavidin-HRP, O.D. 450 nm.
Method: as §1
In the case of B1, the “EC50 (read off the curve)” value is roughly 0.3 nM.

For the next test the target is unchanged. The description is as above. This is another data set of the same source.
Method: as §1
For the molecule B2, the “EC50 (read off the curve)” value was roughly 0.4 nM.

The target of a further test is T2, full-length sAPPalpha fragment (UniProt P05067-4 18-612, limits assumed).
T2 construct: domain: sAPPalpha; Bought protein; also called soluble APP alpha; soluble amyloid precursor protein alpha
T2 sequence (P05067 other isoform, or with tags, fused parts or gaps limits assumed): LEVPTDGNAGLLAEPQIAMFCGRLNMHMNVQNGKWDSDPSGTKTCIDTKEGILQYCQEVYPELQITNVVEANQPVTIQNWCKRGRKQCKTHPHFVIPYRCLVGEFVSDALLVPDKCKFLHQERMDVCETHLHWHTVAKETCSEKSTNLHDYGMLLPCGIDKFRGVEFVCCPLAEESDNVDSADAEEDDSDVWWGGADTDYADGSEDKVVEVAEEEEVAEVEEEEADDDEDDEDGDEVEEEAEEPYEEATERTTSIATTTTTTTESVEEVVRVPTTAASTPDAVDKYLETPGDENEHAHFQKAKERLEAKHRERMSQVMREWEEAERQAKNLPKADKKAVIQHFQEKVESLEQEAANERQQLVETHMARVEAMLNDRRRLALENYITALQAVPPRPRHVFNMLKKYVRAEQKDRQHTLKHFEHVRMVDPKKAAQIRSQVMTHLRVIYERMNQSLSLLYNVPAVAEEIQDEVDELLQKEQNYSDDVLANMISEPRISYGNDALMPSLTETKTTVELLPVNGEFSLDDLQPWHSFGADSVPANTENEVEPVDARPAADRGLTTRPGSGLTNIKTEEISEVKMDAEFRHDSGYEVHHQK
The test can be described thus: indirect ELISA, sAPPalpha coated.
Method: (§2) Antibody target binding was evaluated by an enzyme-linked immunosorbent assay (ELISA). Briefly, Nunc MaxiSorp 96-well plates (Nunc) were coated for 18 h at 4° C. with 50 μL of 10 pg/mL Abeta1-42 or bovine serum albumin (BSA, Sigma) diluted in PBS. In selected assays, the full-length sAPPalpha fragment (Sigma) was additionally included by coating wells as described above, but at 4 pg/mL (0.04 μM). Plates were then washed 4-times with 300 μL of PBS containing 0.05% Tween20 (Millipore). To block non-specific binding to the plate, freshly prepared solution of PBS containing 0.05% Tween20 and 1% BSA, was added to each well (100 μL/well) and the plates were incubated for 1 h at 37° C. Primary antibodies were diluted to 100 nM in PBS containing 1% BSA and 0.05% Tween20, followed by 3-fold serial dilutions in duplicates. Solutions were added to plates at 50 μL/well and incubated for 1 h at 37° C. Subsequently, the plates were washed 4-times with 300 μL of PBS containing 0.05% Tween20. Plates were then incubated with horseradish peroxidase (HRP) conjugated goat anti-mouse secondary IgG (Abcam) for 1 h at 37° C. After final wash step (4-times with 300 μL of PBS containing 0.05% Tween20), plates were incubated with 3,3′,5,5′-tetramethylbenzidine (TMB) substrate (BD Biosciences) and reaction stopped with a Stop Solution (Sigma). Finally, optical densities (O.D.) were read at 450 nm absorption wavelength using a Tecan Infinite plate reader. Measured values are expressed as mean O.D. from a duplicate run ±1 standard deviation of the mean (S.D.).
For B5, the binding result was “no binding”.
Still for that read-out and setting: the entry for B1 is “no binding”; for B6 it is “no binding”; for B7 it is “no binding”.
The same measure, in the same setting: under B8 stands “no binding”; under B9, “no binding”; under B10, “no binding”.
Same read-out and setting: under B11 stands “no binding”; under B12, “no binding”; under B3, “no binding”.
With B4, the binding result is listed as “no binding”.
Still for that read-out and setting: the entry for B13 is “no binding”.

For a further test, the target named is T3, bovine serum albumin (bovine, UniProt P02769 25-607).
T3 construct: Negative control antigen; also called BSA
Kind of test: indirect ELISA, plate coated with BSA, antibody titrated, anti-mouse IgG-HRP, O.D. 450 nm.
Method: (§3) Antibody target binding was evaluated by an enzyme-linked immunosorbent assay (ELISA). Briefly, Nunc MaxiSorp 96-well plates (Nunc) were coated for 18 h at 4° C. with 50 μL of 10 pg/mL Abeta1-42 or bovine serum albumin (BSA, Sigma) diluted in PBS. In selected assays, the full-length sAPPalpha fragment (Sigma) was additionally included by coating wells as described above, but at 4 pg/mL (0.04 μM). Plates were then washed 4-times with 300 μL of PBS containing 0.05% Tween20 (Millipore). To block non-specific binding to the plate, freshly prepared solution of PBS containing 0.05% Tween20 and 1% BSA, was added to each well (100 μL/well) and the plates were incubated for 1 h at 37° C. Primary antibodies were diluted to 100 nM in PBS containing 1% BSA and 0.05% Tween20, followed by 3-fold serial dilutions in duplicates. Solutions were added to plates at 50 μL/well and incubated for 1 h at 37° C. Subsequently, the plates were washed 4-times with 300 μL of PBS containing 0.05% Tween20. Plates were then incubated with horseradish peroxidase (HRP) conjugated goat anti-mouse secondary IgG (Abcam) for 1 h at 37° C. […] Finally, optical densities (O.D.) were read at 450 nm absorption wavelength using a Tecan Infinite plate reader. Measured values are expressed as mean O.D. from a duplicate run ±1 standard deviation of the mean (S.D.).
Regarding B2, the binding result is reported as “no binding (tested: 100 nM)”.

A further test has as its target T3, bovine serum albumin. Described as above. The source holds these as a separate data set.
Method: as §3
As for B14, the binding result is “no binding (tested: 100 nM)”.

The target of another test is T1, Human Abeta1-42 biotinylated at the …. Kind of test: target capture ELISA.
Method: as §1
Regarding B5, the binding result was “binds”.
The same measure, in the same setting: under B6 stands “binds”; under B7, “binds”; under B8, “binds”.
For the molecule B9, the binding result is on record as “binds”.
Same read-out and setting: the entry for B14 is “binds”; for B10 it is “binds”; for B11 it is “binds”.
Same read-out and setting: the entry for B15 is “binds”.
On the same count and under the same terms, under B16 stands “binds”.
Take B12: the binding result is “binds”.
On the same count and under the same terms, the entry for B13 is “binds”.

For a further test, the target named is T4, Abeta1-42 (human).
T4 construct: coated on plates in the direct ELISA, in solution as analyte in the sandwich ELISA; also called human Abeta 1-42; amyloid-beta 1-42
Kind of test: indirect ELISA, plate coated with Abeta1-42, antibody titrated, anti-mouse IgG-HRP, O.D. 450 nm.
Method: as §3
Regarding B2, the “EC50 (read off the curve)” value is roughly 0.04 nM.

The target of a further test is T1, Human Abeta1-42 biotinylated at the …. The test can be described thus: capture ELISA: antibody held on anti-mouse IgG Fc-coated plate, C-terminally biotinylated Abeta1-42 titrated in solution, streptavidin-HRP, O.D. 450 nm. This is another data set of the same source.
Method: as §1
As for B4, the “EC50 (read off the curve)” value is roughly 2 nM.

The target is the same in the next test. Described as above. The source holds these as a separate data set.
Method: as §1
With B3, the “EC50 (read off the curve)” value was roughly 1 nM.

The target in another test is T4, Abeta1-42. Kind of test: indirect ELISA, plate coated with Abeta1-42, antibody titrated, anti-mouse IgG-HRP, O.D. 450 nm. This is another data set of the same source.
Method: as §3
B14: the “EC50 (read off the curve)” value is roughly 0.07 nM.

The next test concerns the target T4, Abeta1-42. The test can be described thus: indirect ELISA, Abeta1-42 coated, antibody titrated.
Method: as §2
B2 had a Kd of 0.041 nM.
Consider B14, for which the Kd was 0.066 nM.

The target in the next test is T4, Abeta1-42. The test can be described thus: sandwich ELISA: ACI-31-25B1-Ab2 coated as capture, analyte Abeta1-42 titrated, biotinylated ACI-24-41F12-Ab3 as detection, streptavidin-HRP, O.D. 450 nm.
Method: After washing 4-times with 300 μL of PBS containing 0.05% Tween20, the plate was incubated for 45 min at ambient temperature with 50 μL/well of streptavidin-HRP (R&D systems) diluted 1:200 in PBS containing 1% BSA and 0.05% Tween20. The plate was again washed 4-times with 300 μL of PBS containing 0.05% Tween20 before incubating at ambient temperature for 20 or 30 min with 50 or 100 μL/well of 3,3′,5,5′-tetramethylbenzidine (TMB) enzyme substrate (BD Bioscience). Reaction was stopped with a 1.2 M HCl (Sigma) solution. Finally, optical densities (O.D.) were read at 450 nm absorption wavelength using a Tecan Infinite plate reader.
Briefly, a Nunc MaxiSorp 96-well plate (Nunc) was coated for 18 h at 4° C. with 50 μL of capture antibody at 5 μg/mL, diluted in carbonate-bicarbonate buffer. The plate was then washed and blocked as described in the preceding paragraph.
As to B2, the “EC50 (read off the curve)” value is roughly 9 nM.

As usually defined, the Kd is the free concentration of one partner at which half of the binding sites on the other are occupied at equilibrium, for simple one-to-one binding. Lower therefore signals higher affinity. Usually EC50 (read off the curve) stands for the midpoint of the concentration-response curve.
